Measured values from patent US20220119522A1 (DENALI THERAPEUTICS, published 2022).
One block for each binder: values may come before it. No end group written: not given here.

Assays:
[1] = target: T1, human TREM2 on the cell surface (human, UniProt Q9NZC2 19-230); test: cell-based or functional assay
T1 sequence: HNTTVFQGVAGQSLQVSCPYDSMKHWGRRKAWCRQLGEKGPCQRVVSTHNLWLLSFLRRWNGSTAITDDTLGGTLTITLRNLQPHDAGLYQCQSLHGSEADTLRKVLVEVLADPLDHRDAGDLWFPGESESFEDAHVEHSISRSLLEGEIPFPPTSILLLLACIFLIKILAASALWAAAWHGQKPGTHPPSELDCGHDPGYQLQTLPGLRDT

[2] = target: T2, His-tagged human TREM2 ECD (human, UniProt Q9NZC2 19-172); test: SPR (Biacore), antibody captured via anti-human Fab, recombinant TREM2 ECD injected, 1:1 fit
T2 construct: Biacore and HDX say only recombinant human TREM2 (ECD); also called recombinant human TREM2; hTREM2
T2 sequence: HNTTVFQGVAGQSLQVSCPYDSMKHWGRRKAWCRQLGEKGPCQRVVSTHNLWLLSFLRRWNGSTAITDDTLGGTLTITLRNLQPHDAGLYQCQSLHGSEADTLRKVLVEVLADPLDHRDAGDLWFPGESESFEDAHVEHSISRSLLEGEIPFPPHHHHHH
Method: (§1) Surface plasmon resonance (Biacore™ 8K instrument) was used to measure anti-TREM2 antibody affinities for human and cynomolgus TREM2 ECD. Anti-TREM2 antibodies were captured using Human Fab Capture Kit (GE Healthcare Life Sciences, Catalog No. 28958325) on a Biacore Series S CM5 sensor chip (GE Healthcare Life Sciences, Catalog No. 29149604). Serial 3-fold dilutions of recombinant human or cynomolgus TREM2 were injected at a flow rate of 30 μL/min. Antibody binding was monitored for 300 seconds, followed by monitoring of antibody dissociation for 600+seconds in HBS-EP+ running buffer (GE Healthcare Life Sciences, Catalog No. BR100669). The binding response was corrected by subtracting the RU value from a blank flow cell. A 1:1 Languir model of simultaneous fitting of kₒₙ and koff was used for kinetics analysis.

[3] = target: T3, recombinant cynomolgus TREM2 ECD (cynomolgus); test: as above
T3 construct: extracellular domain; also called cyno TREM2
Method: as §1

[4] = target: T4, human TREM2 truncated stalk peptide (aa 149-163) (human, also: biotinylated (site not given here)); test: ELISA on biotinylated peptide captured by streptavidin; A450 normalised to isotype control
T4 construct: also called Human TREM2 peptide (aa 149-163); truncated stalk peptide containing the ADAM10/17 cleavage site
T4 peptide: SFEDAHVEHSISRSL
Method: (§2) TREM2 antibodies were evaluated for binding to human and mouse TREM2 stalk region peptides. […] Antibody binding to TREM2 stalk peptides was detected using standard sandwich ELISA. Briefly, a 96-well half-area ELISA plate was coated with streptavidin overnight at 4° C. The following day, biotinylated TREM2 stalk peptides diluted in 1% BSA/PBS were added to the plate and incubated for 1 hour. Antibodies diluted in 1% BSA/PBS were then added and incubated for 1 hour. Antibodies bound to peptide were detected with anti-human kappa-HRP secondary antibody (Bethyl Laboratories, Inc.) diluted in 1% BSA/PBS. Plates were assayed by reaction with a detection reagent (One-step TMB Ultra, Thermo) and measurement of absorbance at 450 nm (A450) by standard spectrophotometry instrumentation (BioTek®). Data are shown as normalized values (fold over background where background=isotype control).

[5] = target: T5, human TREM2 full length stalk region peptide (aa 129-172) (human, biotinylated (site not stated)); test: as above
T5 construct: also called Human TREM2 peptide (aa 129-172); full-length TREM2 stalk peptide
T5 peptide: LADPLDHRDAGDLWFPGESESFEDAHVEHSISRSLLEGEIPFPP
Method: as §2

[6] = target: T1, human TREM2 on the cell surface; test: cell binding, human macrophages, dose titration
[7] = target: T6, mouse TREM2 full length stalk region peptide (aa 131-169) (mouse, UniProt Q99NH8 131-169, biotinylated (site not stated)); test: ELISA on biotinylated peptide captured by streptavidin; A450 normalised to isotype control
T6 peptide (looked up): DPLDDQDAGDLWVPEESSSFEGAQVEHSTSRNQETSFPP
Method: as §2

[8] = target: T1, human TREM2 on the cell surface; test: flow cytometry, dose-titrated binding to HEK293-H6 cells
Method: After incubation, the cells were centrifuged and washed in FACS buffer (PBS+0.5% BSA) twice. Mixed cells were resuspended in FACS buffer with human Trustain FcX solution (Biolegend, Catalog No. 422302) at a density of 10⁶/mL per cell line. The mixed cell lines were seeded at 200,000 cells per well in a 96-well round-bottom plate and incubated for 20 minutes at room temperature. After incubation, the cells were centrifuged and incubated with anti-TREM2 antibodies of about 0-200 nM dose titration for 45 minutes on ice. After incubation, the cells were centrifuged and washed with FACS buffer three times. […] After incubation, the cells were washed with FACS buffer three times, resuspended in 100 μL of FACS buffer, and analyzed by flow cytometry (BD FACSCanto II, San Jose, Calif.), for which 30,000 events were obtained for each sample. Mean fluorescence intensity per cells were calculated by FlowJo software and used for generating dose response binding curve.
(§3) Sequence optimization was conducted by searching within CDR sequences for residues that are susceptible to chemical modification (e.g., asparagine deamidation motifs (NG), aspartic acid isomerization motifs (DS), and potential oxidation residues (tryptophan (W) and methionine (M)) and making amino acid substitutions with conservative and germline residues to remove such sequence liabilities. Humanized and sequence-optimized variants of anti-TREM2 antibodies were then analyzed for binding kinetics using Biacore and dose-titrated cell binding to HEK293-H6 cells (see, Example 1 for representative protocols).

[9] = target: T2, His-tagged human TREM2 ECD; test: SPR (Biacore)
Method: as §1, §3

- pSyk activation (HEK293-H6) EC50 (nM) [1]: 46.6 nM
- Kd [2]: 14 nM
- Kd [3]: 13.8 nM
- fold over background (A450) [4]: 1.2 fold
- fold over background (A450) [5]: 12 fold
- EC50 [6]: 1.2 nM
B1: CL0020313 (antibody, V domains shown)
VH: QVQLKQSGPGLLQPSQSLSITCTVSGFSLTSYGVHWVRQSPGKGLEWLGVIWSGGITLYNAAFMSRLSITKDNSKSQVFFKMNSLQADDTAIYYCAKVGYGSSSDYWGQGTTLTVSS
VL: DVLMTQSPLSLPVSLGDQASFSCRSSQSIVHSNGNTYLEWYLQKPGQSPKLLIYKVSNRFSGVPDRFSGSGSGTDFTLKISRVEAEDLGVYYCFQGSHVPFTFGSGTKLEIK
notes: also called Clone CL0020313
- Survival EC50 (nM), plate coated mAb, human macrophages [1]: 30.7 nM

- NFAT EC50 (nM), plate coated mAb [1]: 51.9 nM
- pSyk activation (HEK293-H6) EC50 (nM) [1]: 33.4 nM
- Kd [2]: 2.31 nM
- Kd [3]: 2.28 nM
- fold over background (A450) [7]: 7.9 fold
- fold over background (A450) [5]: 11 fold
- EC50 [6]: 0.6 nM
B2: CL0020308 (antibody, V domains shown)
VH: QVQLKQSGPSLVQPSQSLSITCTVSGFSLTTYGIHWVRQSPGKGLEWLGVIWTGGSTAFNAAFMSRLSITKDNSKSQVFFKMNSLQADDTAIYYCAKVGFHSATDYWGQGTSVTVSS
VL: DVLMTQTPLSLPVTLGDQASISCRSSQNLVHSNGNTYLEWYLQKPGQSPKLLIYKVSNRFSGVPDRFSGSGSGTDFTLKISRVEAEDLGLYYCFQGSHVPFTFGSGTKLEIK
notes: also called Clone CL0020308
- Survival EC50 (nM), plate coated mAb, human macrophages [1]: 8.9 nM

- pSyk activation (HEK293-H6) EC50 (nM) [1]: 40.6 nM
- Kd [2]: 5.31 nM
- Kd [3]: 5.33 nM
- fold over background (A450) [7]: 6.6 fold
- fold over background (A450) [5]: 11 fold
- EC50 [6]: 0.7 nM
B3: CL0020309 (antibody, V domains shown)
VH: QVQLKQSGPSLVQPSQSLSITCTVSGFSLTSYGVQWVRQSPGKGLEWLGVIWTGGTTDFNAAFKSRLSITKDNSKSQVFFKMNSLQADDSAIYYCAKIGFHSAVDYWGQGTSVTVSS
VL: DVLMTQTPLSLPVSLGDQASISCRSSQNIVHSNGNTYLEWYLQKPGQSPKLLIYKVSNRFSGVPDRFSGSGSGTDFTLKINRVEAEDLGLYYCFQGSHIPFTFGSGTQLEIK
notes: also called Clone CL0020309
- Survival EC50 (nM), plate coated mAb, human macrophages [1]: 2.69 nM

- NFAT EC50 (nM), plate coated mAb [1]: 81.7 nM
- pSyk activation (human macrophages) EC50 (nM) [1]: 9.5 nM
- Kd [2]: 0.54 nM
- Kd [3]: 13.4 nM
- fold over background (A450) [7]: 5.4 fold
- fold over background (A450) [4]: 1.7 fold
- fold over background (A450) [5]: 14 fold
B4: CL0020201 (antibody, V domains shown)
VH: EVQLQQSGPVLVKPGASVRMSCKPSGYTFTDYYMNWVKQSHGKSLEWIGSINPYTGGSSYNQNFRGKATLTVDKSSSTAYMELNSLTSEDSAVYYCARGSYYSNLGFAYWGQGTLVTVSA
VL: DVQLTQSPSFLTASPGETITINCRASKSISKYLAWYQEKPGKTNKLLISSGSTLQSGIPSRFSGSGSGTDFTLTISSLEPEDFAMYYCQQYSEYPFTFGSGTKLEIK
notes: also called Clone CL0020201
- Survival EC50 (nM), plate coated mAb, human macrophages [1]: 6.6 nM

- EC50 [8]: 0.38 nM
- Kd [9]: 0.39 nM
B10: CL0020123-8 (antibody, V domains shown)
VH: QVQLVQSGAEVKKPGASVKVSCKASGFSIEDFYIHWVRQAPGQGLEWMGWIDPEQGESKYAPKFQGRVTITADTSTSTAYMELSSLRSEDTAVYYCHADHGNYGSTMDYWGQGTLVTVSS
VL: DIQMTQSPSSLSASVGDRVTITCHASQHINVWLSWYQQKPGKAPKLLIYKASNLHTGVPSRFSGSGSGTDFTLTISSLQPEDFATYYCQQGQTYPRTFGQGTKVEIK
notes: Humanized variant of CL0020123 (hVH QGES/1 m, Vk graft); also called Clone CL0020123-8

The next lines start with the binder.

B5: CL0020123-1 (antibody, V domains shown)
VH: QVQLVQSGAEVKKPGASVKVSCKASGFSIEDFYIHWVRQAPGQGLEWMGWIDPENGDSKYAPKFQGRATITADTSTSTAYMELSSLRSEDTAVYYCHADHGNYGSTMDYWGQGTLVTVSS
VL: DIQMTQSPSSLSASVGDRVTITCHASQHINVWLSWYQQKPGKAPKLLIYKASNLHTGVPSRFSGSGSGTDFTLTISSLQPEDFATYYCQQGQTYPRTFGQGTKVEIK
notes: Humanized variant of CL0020123 (hVH NGDS/2 m, Vk graft); also called Clone CL0020123-1
- EC50 [8]: 0.25 nM
- Kd [9]: 0.14 nM

B6: CL0020123-2 (antibody, V domains shown)
VH: QVQLVQSGAEVKKPGASVKVSCKASGFSIEDFYIHWVRQAPGQGLEWMGWIDPENGDSKYAPKFQGRVTITADTSTSTAYMELSSLRSEDTAVYYCHADHGNYGSTMDYWGQGTLVTVSS
VL: DIQMTQSPSSLSASVGDRVTITCHASQHINVWLSWYQQKPGKAPKLLIYKASNLHTGVPSRFSGSGSGTDFTLTISSLQPEDFATYYCQQGQTYPRTFGQGTKVEIK
notes: Humanized variant of CL0020123 (hVH NGDS/1 m, Vk graft); also called Clone CL0020123-2
- EC50 [8]: 0.23 nM
- Kd [9]: 0.18 nM

B7: CL0020123-3 (antibody, V domains shown)
VH: QVQLVQSGAEVKKPGASVKVSCKASGFSIEDFYIHWVRQAPGQGLEWMGWIDPEQGDSKYAPKFQGRATITADTSTSTAYMELSSLRSEDTAVYYCHADHGNYGSTMDYWGQGTLVTVSS
VL: DIQMTQSPSSLSASVGDRVTITCHASQHINVWLSWYQQKPGKAPKLLIYKASNLHTGVPSRFSGSGSGTDFTLTISSLQPEDFATYYCQQGQTYPRTFGQGTKVEIK
notes: Humanized variant of CL0020123 (hVH QGDS/2 m, Vk graft); also called Clone CL0020123-3
- EC50 [8]: 0.24 nM
- Kd [9]: 0.4 nM

B8: CL0020123-4 (antibody, V domains shown)
VH: QVQLVQSGAEVKKPGASVKVSCKASGFSIEDFYIHWVRQAPGQGLEWMGWIDPENGESKYAPKFQGRATITADTSTSTAYMELSSLRSEDTAVYYCHADHGNYGSTMDYWGQGTLVTVSS
VL: DIQMTQSPSSLSASVGDRVTITCHASQHINVWLSWYQQKPGKAPKLLIYKASNLHTGVPSRFSGSGSGTDFTLTISSLQPEDFATYYCQQGQTYPRTFGQGTKVEIK
notes: Humanized variant of CL0020123 (hVH NGES/2 m, Vk graft); also called Clone CL0020123-4
- EC50 [8]: 0.17 nM
- Kd [9]: 0.17 nM

B9: CL0020123-6 (antibody, V domains shown)
VH: QVQLVQSGAEVKKPGASVKVSCKASGFSIEDFYIHWVRQAPGQGLEWMGWIDPEQGDSKYAPKFQGRVTITADTSTSTAYMELSSLRSEDTAVYYCHADHGNYGSTMDYWGQGTLVTVSS
VL: DIQMTQSPSSLSASVGDRVTITCHASQHINVWLSWYQQKPGKAPKLLIYKASNLHTGVPSRFSGSGSGTDFTLTISSLQPEDFATYYCQQGQTYPRTFGQGTKVEIK
notes: Humanized variant of CL0020123 (hVH QGDS/1 m, Vk graft); also called Clone CL0020123-6
- EC50 [8]: 0.29 nM
- Kd [9]: 0.32 nM
